# Reference: IntAct's records for PubMed 22879593
# Biological target: USH1C, Q9Y6N9-1
# Sequence (Q9Y6N9 whole entry): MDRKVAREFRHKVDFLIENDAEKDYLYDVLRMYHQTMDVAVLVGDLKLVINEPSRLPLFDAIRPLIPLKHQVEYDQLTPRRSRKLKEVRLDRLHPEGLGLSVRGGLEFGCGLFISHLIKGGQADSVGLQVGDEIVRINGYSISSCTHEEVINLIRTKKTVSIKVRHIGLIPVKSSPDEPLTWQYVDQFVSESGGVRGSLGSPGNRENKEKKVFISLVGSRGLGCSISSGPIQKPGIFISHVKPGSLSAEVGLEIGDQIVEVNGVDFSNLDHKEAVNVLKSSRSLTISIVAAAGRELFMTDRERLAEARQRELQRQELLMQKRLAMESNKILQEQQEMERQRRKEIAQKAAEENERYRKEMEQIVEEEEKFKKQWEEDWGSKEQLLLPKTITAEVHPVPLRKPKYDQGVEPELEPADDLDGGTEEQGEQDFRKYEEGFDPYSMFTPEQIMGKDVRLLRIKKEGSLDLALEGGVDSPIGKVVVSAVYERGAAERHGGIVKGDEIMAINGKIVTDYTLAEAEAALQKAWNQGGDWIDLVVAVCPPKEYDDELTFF
row,Substance,effect of a mutation on the interaction
1,"Cadherin-23 (Homo sapiens), Q9H251 L3188Q;L3215Q",disrupting interaction strength

# Biological target: USH1C, Q9Y6N9-1
# Remark: another data set of the same source
row,Substance,effect of a mutation on the interaction
1,"Cadherin-23 (Homo sapiens), Q9H251 L3215Q",decreasing interaction strength
2,"Cadherin-23 (Homo sapiens), Q9H251 L3219Q",decreasing interaction strength
3,"Cadherin-23 (Homo sapiens), Q9H251 L3223Q",with no effect
4,"Cadherin-23 (Homo sapiens), Q9H251 L3225Q",with no effect
5,"Cadherin-23 (Homo sapiens), Q9H251 L3228Q",with no effect
6,"Cadherin-23 (Homo sapiens), Q9H251 Y3222E",decreasing interaction strength
